{"source": "patent US20160319032A1", "about": "(MEDLMMUNE, published 2016)", "binders": {"B1": {"name": "sc 320 (antibody, V domains shown)", "VH": "EVQLVESGGGLVKPGGSLRLSCAASGYTFTNYIMHWVRQAPGKGLEWVSSISISSSYIYYADSVKGRFTISRDNAKNSLYLQMNSLRAEDTAVYYCARDPVPLERRDYYYGMDVWGQGTTVTVSS", "VL": "QSVLTQPPSMSAAPGQKVTISCSGSSSNIGNNYVSWYQQLPGTAPKLLIYDNNKRPSGIPDRFSGSKSGTSATLGITGLQTGDEADYYCGTWDSSLSAGVFGGGTKLTVL", "notes": "lambda light chain"}, "B2": {"name": "sc 133 (antibody, V domains shown)", "VH": "QVQLVQSGAEVKKPGASVKVSCKASGYTFTGYYMHWVRQAPGQGLEWMGWINPKSGDTNYAQKFQGRVTLTRDTSTSTAYMELSRLRSDDTAVYYCARRLDVWGQGTTVTVSS", "VL": "QSVLTQPPSVSAAPGQKVTISCSGSSSNIGNNYVSWYQQLPGTAPKLLIYDNNKRPSGIPDRFSGSKSGTSATLGITGLQTGDEADYYCGTWNSSLSAGYVFGTGTKVTV", "notes": "lambda light chain; also called mAb sc 133"}, "B3": {"name": "sc 97 (antibody, V domains shown)", "VH": "EVQLVQSGAEVKKPGESLKISCKGSGYSFTSYWIGWVRQMPGKGLEWMGIIYPGDSDTRYSPSFQGQVILSADKSISTAYLQWSSLKASDTAMYYCARHDESSGYYYVFDIWGQGTMVTVSS", "VL": "SYELTQPPSVSVSPGQTARITCSGDALPKKYAYWYQQKSGQAPVLVIYEDIKRPSGIPERFSGSSSGTMATLTISGAQVEDEADYYCYSTDSSGNHWVFFGGGTKLTVL", "notes": "lambda light chain; also called sc 097"}, "B4": {"name": "sc 49 (antibody, V domains shown)", "VH": "QVQLQESGPGLVKPSQTLSLTCTVAGGSIRSGDYYWSWIRQHPGKGLEWIGNIYYSGSTYYNPSLKSRITISVATSRNQFSLKLTSVTAADTAVYYCARGGAITIFGVFDYWGQGTLVTVSS", "VL": "not shown", "notes": "kappa light chain; also called sc 049"}, "B5": {"name": "sc 58 (antibody, V domains shown)", "VH": "not shown", "VL": "SYELTQPPSVSVSPGQTARITCSGDALPKKYAYWYQQKSGQAPVLVIYDDSKRPSGIPERFSGSSSGTMATLTISGAQVEDEADYYCYSTDSSGNHRVFGGGTKLTVL", "notes": "lambda light chain; also called sc 058"}, "B6": {"name": "sc 188 (antibody, V domains shown)", "VH": "QVQLQESGPGLVKPSQTLSLTCTVSGGSISSGVYYWTWIRQHPGNGLEWIGYIYYSGSTSYNPSLKSRVTISVDTSKKQFSLNLTSVTAADTAVYYCAREGPLRGDYYYGLDVWGQGTTVTVSS", "VL": "EIVLTQSPGTLSLSPGERATLSCRAGQTISSRYLAWYQQKPGQAPRPLIYGASSRATGIPDRFSGSGSGTDFTLTISRLEPEDFAVYYCQQYGSSPRTFGQGTKVEIK", "notes": "kappa light chain"}, "B7": {"name": "sc 254 (antibody, V domains shown)", "VH": "QVQLQESGPGLVKPSQTLSLTCTVSGGSISSGGYYWSWIRQHPGKGLEWIGYIYYSGSTYYNPSLKSRVTISVDTSKNQFSLKLSSVTAADTAMYYCARYRGPAAGRGDFYYFGMDVWGQGTTVTVSS", "VL": "DIVMTQTPLSLSVTPGQPASIFCKSSQSLLNSDGKTYLCWYLQKPGQPPQLLIYEVSNRFSGVPDRFSGSGSGTDFTLKISRVEAEDVGVYYCMQGIQLPWAFFGQGTKVEIK", "notes": "kappa light chain"}, "B8": {"name": "sc 264 RAD (antibody, V domains shown)", "VH": "QVQLQESGPGLVKPSQTLSLTCTVSGGSISSGGYYWSWIRQHPGKGLEWIGYIYYSGRTYNNPSLKSRVTISVDTSKNQFSLKLSSVTAADTAVYYCARVATGRADYHFYAMDVWGQGTTVTVSS", "VL": "SYELTQPSSVSVSPGQTARITCSGDVLAKKSARWFHQKPGQAPVLVIYKDSERPSGIPERFSGSSSGTTVTLTISGAQVEDEAAYYCYSAADNNLVFGGGTKLTVL"}, "B9": {"name": "sc 188 SDM (antibody, V domains shown)", "VH": "B6 VH with N83K", "VL": "B6 VL"}, "B10": {"name": "sc 277 (antibody, V domains shown)", "VH": "EVQLVQSGAEVKKPGESLKISCKGSGYSFPSYWIGWVRQMPGKGLEWMGIIYPGDSDTRYSPSFQGQVTISADKSISTAYLQWSSLKASDTAMYYCARHPMEDGMDVWGQGTTVTVSS", "VL": "SYELTQPPSVSVSPGQTARITCSGDALPKKYAFWYQQKSGQAPVLVIYDDNKRPSGIPERFSGSSSGTMATLTITGAQVEDEADYYCYSTDSSGHHVFGGGTKLTVL", "notes": "lambda light chain"}, "B11": {"name": "sc 161 (antibody, V domains shown)", "VH": "EVQLVQSGAEVKKPGESLKISCKGSGYSFTSYWIGWVRQMPGKGLEWMGIIYPGDSDTRYSPSFQGQVTISADKSISTAYLQWSSLKASDTAMYYCARHGIAAAGFYYYYMDVWGQGTTVTVSS", "VL": "EIVLTQSPDTLSLSPGERASLSCRASQNVNRNYLVWYQQKPGQAPRLLIYGTSNRATGIPDRFSGSGSGTDFTLTISRLEPEDFAVYYCQQCGSLPFTFGPGTKVDIKR", "notes": "kappa light chain"}}, "note": "Residue numbers refer to the chain shown, from its start."}
{"molecular_target": "T1, cynomolgus αVβ6 on cells (cynomolgus)", "T1 construct": "whole, on cells; also called macaque αVβ6; Mac AVB6", "assay": "FACS, supernatant, HEK-293 transfected with cynomolgus αV and β6", "units": {"% Cells Shifted": "%"}}
{"binder": "B1", "% Cells Shifted": 19, "GeoMean": 33.5}
{"binder": "B2", "% Cells Shifted": 32, "GeoMean": 35.2}
{"binder": "B3", "% Cells Shifted": 35, "GeoMean": 37}
{"binder": "B4", "% Cells Shifted": 23, "GeoMean": 30.2}
{"binder": "B5", "% Cells Shifted": 25, "GeoMean": 22.8}
{"molecular_target": "T2, α5β1 integrin on K562 cells (UniProt P08648 42-1049; P05556 21-798)", "T2 sequence (P08648 42-1049, chain 1 of 2)": "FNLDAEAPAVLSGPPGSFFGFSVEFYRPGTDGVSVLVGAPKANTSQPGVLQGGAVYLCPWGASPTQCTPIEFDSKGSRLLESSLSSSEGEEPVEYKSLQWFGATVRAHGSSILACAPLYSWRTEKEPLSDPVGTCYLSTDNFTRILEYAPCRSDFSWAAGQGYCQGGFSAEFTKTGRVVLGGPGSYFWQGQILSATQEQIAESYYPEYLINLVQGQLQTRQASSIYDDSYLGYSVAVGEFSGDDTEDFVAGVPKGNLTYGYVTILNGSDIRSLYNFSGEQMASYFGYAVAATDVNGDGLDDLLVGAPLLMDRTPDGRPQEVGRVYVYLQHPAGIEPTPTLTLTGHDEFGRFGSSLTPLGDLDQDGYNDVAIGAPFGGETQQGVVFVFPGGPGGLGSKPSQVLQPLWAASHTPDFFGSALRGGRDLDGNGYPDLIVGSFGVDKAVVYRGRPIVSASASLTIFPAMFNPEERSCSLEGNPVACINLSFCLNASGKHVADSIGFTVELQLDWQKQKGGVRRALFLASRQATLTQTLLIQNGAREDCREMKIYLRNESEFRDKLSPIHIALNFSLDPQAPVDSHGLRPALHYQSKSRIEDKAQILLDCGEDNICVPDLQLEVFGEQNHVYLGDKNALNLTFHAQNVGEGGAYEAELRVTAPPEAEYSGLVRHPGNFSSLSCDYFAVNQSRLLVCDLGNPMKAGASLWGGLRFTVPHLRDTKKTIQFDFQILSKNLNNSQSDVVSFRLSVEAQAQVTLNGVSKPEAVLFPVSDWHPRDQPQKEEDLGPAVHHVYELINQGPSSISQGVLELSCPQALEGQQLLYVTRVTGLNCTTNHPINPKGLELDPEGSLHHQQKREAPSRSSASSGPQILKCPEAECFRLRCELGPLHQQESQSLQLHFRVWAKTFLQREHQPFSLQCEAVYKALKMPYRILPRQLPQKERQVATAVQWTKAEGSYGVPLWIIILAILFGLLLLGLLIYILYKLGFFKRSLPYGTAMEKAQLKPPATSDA", "T2 sequence (P05556 21-798, chain 2 of 2)": "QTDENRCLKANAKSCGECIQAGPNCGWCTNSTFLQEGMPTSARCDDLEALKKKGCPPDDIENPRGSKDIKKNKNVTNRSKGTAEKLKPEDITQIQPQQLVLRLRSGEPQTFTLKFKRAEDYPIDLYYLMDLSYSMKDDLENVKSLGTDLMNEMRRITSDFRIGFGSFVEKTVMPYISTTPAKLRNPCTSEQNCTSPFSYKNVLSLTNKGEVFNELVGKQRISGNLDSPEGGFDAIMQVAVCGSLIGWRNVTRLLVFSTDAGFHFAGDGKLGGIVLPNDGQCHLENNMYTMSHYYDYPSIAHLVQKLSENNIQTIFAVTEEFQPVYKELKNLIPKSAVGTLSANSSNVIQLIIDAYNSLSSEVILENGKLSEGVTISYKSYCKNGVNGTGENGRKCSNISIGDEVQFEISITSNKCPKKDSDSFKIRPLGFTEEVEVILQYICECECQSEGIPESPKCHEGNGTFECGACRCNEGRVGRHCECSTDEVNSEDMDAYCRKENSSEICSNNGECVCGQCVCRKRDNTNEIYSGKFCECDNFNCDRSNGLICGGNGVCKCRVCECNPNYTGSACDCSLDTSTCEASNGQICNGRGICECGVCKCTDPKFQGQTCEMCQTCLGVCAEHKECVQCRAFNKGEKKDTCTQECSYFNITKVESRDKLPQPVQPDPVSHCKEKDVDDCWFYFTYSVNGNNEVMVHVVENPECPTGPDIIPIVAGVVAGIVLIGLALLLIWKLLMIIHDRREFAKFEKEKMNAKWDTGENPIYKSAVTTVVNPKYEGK", "assay": "cell-based or functional assay", "units": {"Percent Inhibition of K562 adhesion to FN9-10, 5 ug/ml": "%"}}
{"binder": "B2", "Percent Inhibition of K562 adhesion to FN9-10, 5 ug/ml": -12}
{"binder": "B6", "Percent Inhibition of K562 adhesion to FN9-10, 5 ug/ml": 5}
{"binder": "B7", "Percent Inhibition of K562 adhesion to FN9-10, 5 ug/ml": -9}
{"molecular_target": "T3, human αVβ6 integrin on cells (human, UniProt P06756 31-1048; P18564 22-788)", "T3 sequence (P06756 31-1048, chain 1 of 2)": "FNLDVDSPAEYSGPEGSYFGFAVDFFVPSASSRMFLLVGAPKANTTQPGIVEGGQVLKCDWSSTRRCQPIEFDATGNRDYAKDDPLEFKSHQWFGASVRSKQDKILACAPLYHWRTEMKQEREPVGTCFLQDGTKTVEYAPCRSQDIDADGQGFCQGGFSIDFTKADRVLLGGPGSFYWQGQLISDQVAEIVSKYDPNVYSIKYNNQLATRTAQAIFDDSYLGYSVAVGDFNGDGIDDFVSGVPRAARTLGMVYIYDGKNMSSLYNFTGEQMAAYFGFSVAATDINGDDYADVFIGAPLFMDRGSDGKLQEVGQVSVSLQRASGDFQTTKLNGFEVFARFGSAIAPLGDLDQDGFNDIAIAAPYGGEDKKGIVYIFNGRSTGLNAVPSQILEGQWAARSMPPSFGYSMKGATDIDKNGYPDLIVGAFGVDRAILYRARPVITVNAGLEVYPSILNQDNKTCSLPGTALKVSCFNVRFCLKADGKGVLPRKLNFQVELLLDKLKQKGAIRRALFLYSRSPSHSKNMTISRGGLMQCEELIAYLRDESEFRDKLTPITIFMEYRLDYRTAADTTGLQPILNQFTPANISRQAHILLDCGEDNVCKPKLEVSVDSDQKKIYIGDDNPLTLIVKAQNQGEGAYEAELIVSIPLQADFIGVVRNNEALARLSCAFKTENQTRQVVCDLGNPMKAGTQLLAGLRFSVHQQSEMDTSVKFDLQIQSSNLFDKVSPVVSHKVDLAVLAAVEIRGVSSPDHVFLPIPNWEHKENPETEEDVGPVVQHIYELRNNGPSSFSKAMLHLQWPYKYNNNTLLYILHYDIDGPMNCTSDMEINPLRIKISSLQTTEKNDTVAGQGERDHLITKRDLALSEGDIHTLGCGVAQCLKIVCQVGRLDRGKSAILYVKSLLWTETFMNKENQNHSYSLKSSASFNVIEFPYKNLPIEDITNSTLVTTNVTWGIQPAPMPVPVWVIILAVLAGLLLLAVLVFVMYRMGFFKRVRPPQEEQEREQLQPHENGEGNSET", "T3 sequence (P18564 22-788, chain 2 of 2)": "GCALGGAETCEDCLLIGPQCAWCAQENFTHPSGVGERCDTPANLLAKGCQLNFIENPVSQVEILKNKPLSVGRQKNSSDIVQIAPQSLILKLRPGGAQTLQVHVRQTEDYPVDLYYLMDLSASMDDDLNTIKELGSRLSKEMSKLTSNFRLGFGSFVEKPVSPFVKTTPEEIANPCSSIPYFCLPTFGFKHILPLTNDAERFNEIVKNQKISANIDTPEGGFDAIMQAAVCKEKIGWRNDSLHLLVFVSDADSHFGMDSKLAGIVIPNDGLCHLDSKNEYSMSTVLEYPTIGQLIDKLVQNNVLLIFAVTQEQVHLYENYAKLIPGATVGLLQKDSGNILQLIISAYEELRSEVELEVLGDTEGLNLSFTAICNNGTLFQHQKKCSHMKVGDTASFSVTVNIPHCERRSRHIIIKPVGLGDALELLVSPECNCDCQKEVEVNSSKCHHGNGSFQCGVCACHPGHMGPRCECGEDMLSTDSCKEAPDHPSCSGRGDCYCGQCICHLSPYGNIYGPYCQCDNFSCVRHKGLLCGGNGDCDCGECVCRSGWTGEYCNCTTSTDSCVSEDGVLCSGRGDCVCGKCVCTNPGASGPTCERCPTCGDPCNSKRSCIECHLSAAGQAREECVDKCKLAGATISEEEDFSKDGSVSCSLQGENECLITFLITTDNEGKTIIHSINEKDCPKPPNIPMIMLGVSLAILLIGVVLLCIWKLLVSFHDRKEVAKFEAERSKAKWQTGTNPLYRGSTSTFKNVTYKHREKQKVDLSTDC", "assay": "cell-based or functional assay", "units": {"IC50, adhesion of HT29 cells, n = 1": "µg/mL", "IC50, adhesion of HT29 cells, n = 2": "µg/mL", "IC50, adhesion of HT29 cells, n = 3": "µg/mL"}}
{"binder": "B8", "IC50, adhesion of HT29 cells, n = 1": 0.013, "IC50, adhesion of HT29 cells, n = 2": 0.013, "IC50, adhesion of HT29 cells, n = 3": 0.039}
{"binder": "B6", "IC50, adhesion of HT29 cells, n = 1": 0.125, "IC50, adhesion of HT29 cells, n = 2": 0.157, "IC50, adhesion of HT29 cells, n = 3": 0.064}
{"binder": "B9", "IC50, adhesion of HT29 cells, n = 1": 0.022, "IC50, adhesion of HT29 cells, n = 2": 0.024, "IC50, adhesion of HT29 cells, n = 3": 0.067}
{"molecular_target": "T2, α5β1 integrin on K562 cells", "assay": "cell-based or functional assay", "remark": "another data set of the same source", "units": {"% Inhibition of K562 adhesion to fibronectin": "%"}}
{"binder": "B8", "% Inhibition of K562 adhesion to fibronectin": 6}
{"binder": "B6", "% Inhibition of K562 adhesion to fibronectin": -5}
{"binder": "B9", "% Inhibition of K562 adhesion to fibronectin": -8}
{"molecular_target": "T3, human αVβ6 integrin on cells", "assay": "FMAT, supernatant, HEK 293 cells stably overexpressing αVβ6"}
{"binder": "B10", "FMAT FL1XCount": 10700}
{"binder": "B6", "FMAT FL1XCount": 79800}
{"binder": "B7", "FMAT FL1XCount": "1.6e+06"}
{"binder": "B11", "FMAT FL1XCount": 16700}
{"molecular_target": "T3, human αVβ6 integrin on cells", "assay": "cell-based or functional assay", "remark": "another data set of the same source", "units": {"Estimated IC50, adhesion assay, n = 1": "µg/mL", "Estimated IC50, adhesion assay, n = 2": "µg/mL", "Estimated IC50, adhesion assay, n = 3": "µg/mL"}}
{"binder": "B10", "Estimated IC50, adhesion assay, n = 1": 1.46, "Estimated IC50, adhesion assay, n = 2": 0.54, "Estimated IC50, adhesion assay, n = 3": 0.72}
{"binder": "B6", "Estimated IC50, adhesion assay, n = 1": 0.041, "Estimated IC50, adhesion assay, n = 2": 0.026}
{"binder": "B7", "Estimated IC50, adhesion assay, n = 1": 0.063, "Estimated IC50, adhesion assay, n = 2": 0.037, "Estimated IC50, adhesion assay, n = 3": 0.037}
{"binder": "B11", "Estimated IC50, adhesion assay, n = 1": 2.41, "Estimated IC50, adhesion assay, n = 2": 0.137}
{"binder": "B5", "Estimated IC50, adhesion assay, n = 1": 4.07, "Estimated IC50, adhesion assay, n = 2": 2.03, "Estimated IC50, adhesion assay, n = 3": 3.26}
{"molecular_target": "T3, human αVβ6 integrin on cells", "assay": "cell-based or functional assay", "remark": "another data set of the same source", "units": {"Percent Internalization, 1 ug/ml": "%", "Percent Internalization, 10 ug/ml": "%"}}
{"binder": "B8", "Percent Internalization, 1 ug/ml": 31, "Percent Internalization, 10 ug/ml": 42}
{"binder": "B6", "Percent Internalization, 1 ug/ml": 27, "Percent Internalization, 10 ug/ml": 18}
{"binder": "B9", "Percent Internalization, 1 ug/ml": 17, "Percent Internalization, 10 ug/ml": 22}
{"molecular_target": "human αV on parental A375M cells (αVβ3 and αVβ5 integrins) (human, UniProt P06756 31-1048)", "sequence (P06756 31-1048 A375M, form in doubt)": "as the sequence (P06756 31-1048, chain 1 of 2) above, with A345M counted along it", "assay": "cell-based or functional assay", "units": {"Percent Inhibition of A375M adhesion to osteopontin peptide, 5 ug/ml": "%"}}
{"binder": "B2", "Percent Inhibition of A375M adhesion to osteopontin peptide, 5 ug/ml": 3}
{"molecular_target": "T3, human αVβ6 integrin on cells", "assay": "cell-based or functional assay", "remark": "another data set of the same source", "units": {"Assay 1 % Inhibition of adhesion": "%", "Assay 2 % Inhibition of adhesion": "%", "Average % Inhibition of adhesion": "%"}}
{"binder": "B10", "Assay 1 % Inhibition of adhesion": 98, "Assay 2 % Inhibition of adhesion": 101, "Average % Inhibition of adhesion": 100}
{"binder": "B6", "Assay 1 % Inhibition of adhesion": 99, "Assay 2 % Inhibition of adhesion": 103, "Average % Inhibition of adhesion": 101}
{"binder": "B7", "Assay 1 % Inhibition of adhesion": 98, "Assay 2 % Inhibition of adhesion": 106, "Average % Inhibition of adhesion": 102}
{"binder": "B11", "Assay 1 % Inhibition of adhesion": 98, "Assay 2 % Inhibition of adhesion": 106, "Average % Inhibition of adhesion": 102}
{"binder": "B5", "Assay 1 % Inhibition of adhesion": 77, "Assay 2 % Inhibition of adhesion": 46, "Average % Inhibition of adhesion": 62}
{"molecular_target": "T4, α4β1 integrin on J6.77 cells (UniProt P13612 34-1032; P05556 21-798)", "assay": "cell-based or functional assay", "units": {"Percent Inhibition of J6.77 adhesion to CS-1 peptide, 5 ug/ml": "%"}}
{"binder": "B10", "Percent Inhibition of J6.77 adhesion to CS-1 peptide, 5 ug/ml": -17}
{"binder": "B1", "Percent Inhibition of J6.77 adhesion to CS-1 peptide, 5 ug/ml": -8}
{"binder": "B2", "Percent Inhibition of J6.77 adhesion to CS-1 peptide, 5 ug/ml": -15}
{"binder": "B3", "Percent Inhibition of J6.77 adhesion to CS-1 peptide, 5 ug/ml": -7}
{"binder": "B6", "Percent Inhibition of J6.77 adhesion to CS-1 peptide, 5 ug/ml": -10}
{"binder": "B7", "Percent Inhibition of J6.77 adhesion to CS-1 peptide, 5 ug/ml": 0}
{"binder": "B11", "Percent Inhibition of J6.77 adhesion to CS-1 peptide, 5 ug/ml": 12}
{"binder": "B5", "Percent Inhibition of J6.77 adhesion to CS-1 peptide, 5 ug/ml": -14}
{"molecular_target": "T4, α4β1 integrin on J6.77 cells", "assay": "cell-based or functional assay", "remark": "another data set of the same source", "units": {"Percent Inhibition of J6.77 adhesion to CS-1 peptide, 5 ug/ml": "%"}}
{"binder": "B8", "Percent Inhibition of J6.77 adhesion to CS-1 peptide, 5 ug/ml": -2}
{"binder": "B6", "Percent Inhibition of J6.77 adhesion to CS-1 peptide, 5 ug/ml": 2}
{"binder": "B9", "Percent Inhibition of J6.77 adhesion to CS-1 peptide, 5 ug/ml": -6}
{"molecular_target": "T3, human αVβ6 integrin on cells", "assay": "cell-based or functional assay", "remark": "another data set of the same source", "units": {"Percent Internalization, 1 ug/mL": "%", "Percent Internalization, 10 ug/mL": "%"}}
{"binder": "B6", "Percent Internalization, 1 ug/mL": 34, "Percent Internalization, 10 ug/mL": 38}
{"binder": "B7", "Percent Internalization, 1 ug/mL": 39, "Percent Internalization, 10 ug/mL": 49}
